T1: carboxypeptidase Y (Saccharomyces cerevisiae, UniProt P00729)
T1 sequence (P00729 112-532): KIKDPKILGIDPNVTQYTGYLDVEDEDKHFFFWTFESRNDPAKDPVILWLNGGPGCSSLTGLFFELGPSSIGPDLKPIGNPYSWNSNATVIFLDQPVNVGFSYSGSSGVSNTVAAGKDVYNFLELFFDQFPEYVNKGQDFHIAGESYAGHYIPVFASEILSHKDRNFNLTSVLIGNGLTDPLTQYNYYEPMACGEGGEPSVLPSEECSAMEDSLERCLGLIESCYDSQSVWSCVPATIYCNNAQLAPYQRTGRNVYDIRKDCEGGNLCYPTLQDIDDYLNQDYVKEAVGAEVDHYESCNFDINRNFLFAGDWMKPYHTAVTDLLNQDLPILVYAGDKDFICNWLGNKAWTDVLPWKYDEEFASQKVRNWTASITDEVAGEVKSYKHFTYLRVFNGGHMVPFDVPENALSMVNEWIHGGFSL

B1: Sso0767: recombinant protease inhibitor protein from Sulfolobus solfataricus, PEBP family I51, monomer of 19.0 kDa, 157 amino acids (protein, listed as Sulfolobus solfataricus)
chain: MNSESIYSMRVVSSAFKNEDFIPIKYTCDGQDLSPELEWDLVTNAKSYAIIVEDPDAPGGTFIHWVIYNITTNRLPEGVPRLYKSQYGVQGVNDFGNIGYNGPCPPKTHPPHRYYFYVYAIDTILLEIKNINADKLKSLMEGHGIERGFVMGKYKRK
B2: TFS1: protein of the yeast, founder of the family I51, able to inhibit the carboxypeptidase Y (protein, UniProt P14306 1-219, looked up)
Carboxypeptidase Y inhibitor: MNQAIDFAQASIDSYKKHGILEDVIHDTSFQPSGILAVEYSSSAPVAMGNTLPTEKARSKPQFQFTFNKQMQKSVPQANAYVPQDDDLFTLVMTDPDAPSKTDHKWSEFCHLVECDLKLLNEATHETSGATEFFASEFNTKGSNTLIEYMGPAPPKGSGPHRYVFLLYKQPKGVDSSKFSKIKDRPNWGYGTPATGVGKWAKENNLQLVASNFFYAETK

Key:
[1] = target: bovine α-chymotrypsin (Bos taurus, UniProt P00766); test: Inhibition of bovine alpha-chymotrypsin by the S. solfataricus inhibitor; type: biochemical
Description: (§1) To identify the biological function of the purified inhibitor Sso0767 (SsCEI), the ability to inhibit a number of proteases was tested. The set of the proteases examined includes: the alpha-chymotrypsin, trypsin, elastase, carboxypeptidase Y, subtilisin, thrombin and two thermophilic proteases, the kumamolisin-ac and pernisine. […] The specific interaction between the inhibitor and the target proteases was also examined by incubating Sso1273 in a reaction mixture containing all the proteases investigated. In these conditions, the catalytic performance of the inhibitor was identical to that observed by assaying each protease alone.
The inhibition of Sso1273 (SsCEI) versus α-chymotrypsin followed a hyperbolic pattern with increasing concentrations of the inhibitor and the IC50 value (50% inhibitory concentration) was 0.10 μM (Table II).
The reciprocals of the rate of the substrate hydrolysis for each inhibitor concentration were plotted against the reciprocals of the substrate concentrations. Ki was determined from the formula as per the competitive type of inhibition.
(§2) In Table II are reported Ki and IC50 values that are the average of 3-5 separate determinations.

[2] = target: porcine elastase (Sus scrofa, UniProt P00772); test: Inhibition of porcine elastase by the S. solfataricus inhibitor; type: biochemical
Description: as §1, §2

[3] = tested on: subtilisin; test: Protease specificity panel: subtilisin; type: biochemical
Description: as §1

[4] = tested on: trypsin; test: Protease specificity panel: trypsin; type: biochemical
Description: as §1

[5] = target: T1, carboxypeptidase Y; test: Protease specificity panel: carboxypeptidase Y; type: biochemical
Description: as §1

[6] = Stability of the purified inhibitor (heat, denaturants, digestive proteases); type: physicochemical
[7] = tested on: thrombin; test: Protease specificity panel: thrombin; type: biochemical
Description: as §1

[8] = target: T1, carboxypeptidase Y; conditions: read-out: inhibition constant, carboxypeptidase Y; cited from earlier work

Sequence of porcine elastase (P00772 27-266): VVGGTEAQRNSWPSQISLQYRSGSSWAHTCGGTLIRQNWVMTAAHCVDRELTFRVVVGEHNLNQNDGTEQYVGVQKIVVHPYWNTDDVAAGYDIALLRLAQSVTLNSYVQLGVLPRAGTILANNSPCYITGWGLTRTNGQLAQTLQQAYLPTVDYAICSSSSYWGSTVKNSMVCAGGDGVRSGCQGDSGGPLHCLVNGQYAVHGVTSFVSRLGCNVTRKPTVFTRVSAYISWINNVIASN

Molecule | inhibition activity toward α-chymotrypsin (in words) [1] | type of inhibition of α-chymotrypsin ([1]; Lineweaver-Burk reciprocal plot) | inhibition activity versus elastase (in words) [2] | effect on subtilisin [3] | effect on trypsin [4] | effect on carboxypeptidase Y [5] | resistance to common protein denaturants [6] | thermostability: inhibitory activity after incubation ([6]; 4 days at 90° C.) | resistance to digestive proteases ([6]; several digestive proteases) | effect on thrombin [7] | Ki [8]
B1 | best target protease among those tested | competitive inhibitor | clear activity | not affected | not affected | not affected | high resistance | no reduction in inhibitory activity | resistant | not affected | –
B2 | – | – | – | – | – | – | – | – | – | – | 1.8 nM
